For the series, the target named is yeast RPA (yRPA, ScRPA) (Saccharomyces cerevisiae, UniProt P22336;P26754;P26755 1-621;1-273;1-122). Nature of the series: DEER.
yeast RPA (yRPA, ScRPA), sequence (P22336 whole entry, chain 1 of 3): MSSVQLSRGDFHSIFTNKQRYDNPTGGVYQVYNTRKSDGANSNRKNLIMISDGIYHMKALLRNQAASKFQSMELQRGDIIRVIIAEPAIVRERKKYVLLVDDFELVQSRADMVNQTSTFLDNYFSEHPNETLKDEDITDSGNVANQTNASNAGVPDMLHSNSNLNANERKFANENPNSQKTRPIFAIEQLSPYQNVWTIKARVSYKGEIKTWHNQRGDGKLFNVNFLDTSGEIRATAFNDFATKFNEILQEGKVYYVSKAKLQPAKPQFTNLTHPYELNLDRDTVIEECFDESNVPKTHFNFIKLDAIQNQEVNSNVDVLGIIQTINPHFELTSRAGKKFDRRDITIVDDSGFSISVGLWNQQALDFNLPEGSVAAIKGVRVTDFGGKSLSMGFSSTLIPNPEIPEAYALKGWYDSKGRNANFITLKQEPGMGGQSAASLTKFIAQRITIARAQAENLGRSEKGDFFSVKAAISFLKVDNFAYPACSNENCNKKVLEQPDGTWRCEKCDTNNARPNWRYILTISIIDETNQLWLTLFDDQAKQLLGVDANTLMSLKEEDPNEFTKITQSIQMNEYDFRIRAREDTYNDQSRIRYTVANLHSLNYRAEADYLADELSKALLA
yeast RPA (yRPA, ScRPA), sequence (P26754 whole entry, chain 2 of 3): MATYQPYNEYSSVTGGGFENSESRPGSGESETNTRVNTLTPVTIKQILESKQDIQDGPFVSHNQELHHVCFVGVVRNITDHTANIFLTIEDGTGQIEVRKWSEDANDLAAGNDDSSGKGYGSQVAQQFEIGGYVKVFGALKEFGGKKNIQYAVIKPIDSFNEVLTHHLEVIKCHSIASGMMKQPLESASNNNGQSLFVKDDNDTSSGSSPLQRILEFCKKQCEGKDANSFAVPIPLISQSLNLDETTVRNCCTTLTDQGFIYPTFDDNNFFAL
yeast RPA (yRPA, ScRPA), sequence (P26755 whole entry, chain 3 of 3): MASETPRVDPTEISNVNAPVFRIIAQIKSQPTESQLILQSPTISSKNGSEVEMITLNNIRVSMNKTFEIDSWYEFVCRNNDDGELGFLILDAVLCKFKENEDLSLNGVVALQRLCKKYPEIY

B1: (dT)22 DEER (ssDNA)
DNA: UTTTTTTTTTTTTTTTTTTTTTTUT
modifications: M = 2'-aminouridine spin-labelled with isoindoline nitroxide, at the two U positions (1 and 24)
In the case of B1, the binding result is recorded as “binds”.

(Values after publication PMC10996701.)
